This note sets out measurements from PMC5566995, “Development and Characterization of a Camelid Single Domain Antibody–Urease Conjugate That Targets Vascular Endothelial Growth Factor Receptor 2” (Frontiers in Immunology, 2017).

The target in experiment [1] is T1, VEGFR2 expressed by 293/KDR cells (Homo sapiens (assumed; KDR), UniProt P35968).
T1 construct: vascular endothelial growth factor receptor 2 (VEGFR2, KDR) expressed on 293/KDR cells; source: 293/KDR cells, on the cell surface
The experiment can be described thus: flow cytometry on cells; 293/KDR cells incubated with conjugate or biotinylated antibody in staining buffer (PBS with Ca2+ and Mg2+, 0.02% NaN3, 2% FBS) at 2-8 C for 1 h; conjugates detected with mouse anti-urease and AF488-anti-mouse IgG, biotinylated antibody with PE-SA; signal as ratio to 293 cells or to a biotin-isotype control. The note with it: one partner purified.

The target in a further experiment is T2, recombinant VEGFR2/Fc (Homo sapiens (assumed), UniProt P35968).
T2 construct: vascular endothelial growth factor receptor 2 (VEGFR2), recombinant Fc fusion protein; Fc fusions of this supplier usually hold the extracellular domain (surmise); also called vascular endothelial growth factor receptor 2 Fc fusion; source: bought: R&D Systems
The experiment in a line: ELISA; VEGFR/Fc (0.25 ug/mL) captured on plates coated with goat anti-human IgG-Fc; dilutions of antibody-urease conjugate or biotinylated antibody in 0.1% BSA/T-TBS, room temperature, 2 h; conjugates detected with rabbit anti-urease and goat anti-rabbit-AP, biotinylated antibody with streptavidin-alkaline phosphatase; A405. The note with it: both partners purified.

In a further experiment the target is T3, V21H4-DOS47 (llama | jack bean (Canavalia ensiformis)).
T3 construct: as the chain of m1; residues 1-127 of V21H4; urease, jack bean (Canavalia ensiformis), homohexamer, purified from crude urease; Antibody-urease conjugate; the standard method gives 8.7-9.2; also called V21-DOS47; V21H4-DOS47 (8.8 antibodies/urease); source: conjugate purified by diafiltration; copies: 8.8 + 6
The experiment is described as above. The note with it: both partners purified.

T2 sequence (P35968 20-764): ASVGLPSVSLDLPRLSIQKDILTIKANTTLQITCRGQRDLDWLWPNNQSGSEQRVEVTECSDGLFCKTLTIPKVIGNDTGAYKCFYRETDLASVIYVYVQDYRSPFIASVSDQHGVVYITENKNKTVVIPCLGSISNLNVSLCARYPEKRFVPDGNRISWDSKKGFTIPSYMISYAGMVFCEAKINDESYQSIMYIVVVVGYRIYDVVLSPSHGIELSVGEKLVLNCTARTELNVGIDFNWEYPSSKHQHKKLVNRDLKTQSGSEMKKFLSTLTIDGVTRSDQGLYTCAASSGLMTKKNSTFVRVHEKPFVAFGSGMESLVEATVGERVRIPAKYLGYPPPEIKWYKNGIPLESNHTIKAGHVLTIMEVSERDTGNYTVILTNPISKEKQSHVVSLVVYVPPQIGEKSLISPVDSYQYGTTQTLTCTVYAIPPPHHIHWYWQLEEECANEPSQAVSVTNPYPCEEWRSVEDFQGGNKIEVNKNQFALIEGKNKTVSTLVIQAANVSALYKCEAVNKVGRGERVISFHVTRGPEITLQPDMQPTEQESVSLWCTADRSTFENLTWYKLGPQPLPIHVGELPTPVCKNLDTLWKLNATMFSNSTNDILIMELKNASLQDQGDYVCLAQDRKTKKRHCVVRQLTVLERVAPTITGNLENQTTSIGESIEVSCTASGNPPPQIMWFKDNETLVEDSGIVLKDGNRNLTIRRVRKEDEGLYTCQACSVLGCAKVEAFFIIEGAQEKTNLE
T1 sequence (P35968 20-1356): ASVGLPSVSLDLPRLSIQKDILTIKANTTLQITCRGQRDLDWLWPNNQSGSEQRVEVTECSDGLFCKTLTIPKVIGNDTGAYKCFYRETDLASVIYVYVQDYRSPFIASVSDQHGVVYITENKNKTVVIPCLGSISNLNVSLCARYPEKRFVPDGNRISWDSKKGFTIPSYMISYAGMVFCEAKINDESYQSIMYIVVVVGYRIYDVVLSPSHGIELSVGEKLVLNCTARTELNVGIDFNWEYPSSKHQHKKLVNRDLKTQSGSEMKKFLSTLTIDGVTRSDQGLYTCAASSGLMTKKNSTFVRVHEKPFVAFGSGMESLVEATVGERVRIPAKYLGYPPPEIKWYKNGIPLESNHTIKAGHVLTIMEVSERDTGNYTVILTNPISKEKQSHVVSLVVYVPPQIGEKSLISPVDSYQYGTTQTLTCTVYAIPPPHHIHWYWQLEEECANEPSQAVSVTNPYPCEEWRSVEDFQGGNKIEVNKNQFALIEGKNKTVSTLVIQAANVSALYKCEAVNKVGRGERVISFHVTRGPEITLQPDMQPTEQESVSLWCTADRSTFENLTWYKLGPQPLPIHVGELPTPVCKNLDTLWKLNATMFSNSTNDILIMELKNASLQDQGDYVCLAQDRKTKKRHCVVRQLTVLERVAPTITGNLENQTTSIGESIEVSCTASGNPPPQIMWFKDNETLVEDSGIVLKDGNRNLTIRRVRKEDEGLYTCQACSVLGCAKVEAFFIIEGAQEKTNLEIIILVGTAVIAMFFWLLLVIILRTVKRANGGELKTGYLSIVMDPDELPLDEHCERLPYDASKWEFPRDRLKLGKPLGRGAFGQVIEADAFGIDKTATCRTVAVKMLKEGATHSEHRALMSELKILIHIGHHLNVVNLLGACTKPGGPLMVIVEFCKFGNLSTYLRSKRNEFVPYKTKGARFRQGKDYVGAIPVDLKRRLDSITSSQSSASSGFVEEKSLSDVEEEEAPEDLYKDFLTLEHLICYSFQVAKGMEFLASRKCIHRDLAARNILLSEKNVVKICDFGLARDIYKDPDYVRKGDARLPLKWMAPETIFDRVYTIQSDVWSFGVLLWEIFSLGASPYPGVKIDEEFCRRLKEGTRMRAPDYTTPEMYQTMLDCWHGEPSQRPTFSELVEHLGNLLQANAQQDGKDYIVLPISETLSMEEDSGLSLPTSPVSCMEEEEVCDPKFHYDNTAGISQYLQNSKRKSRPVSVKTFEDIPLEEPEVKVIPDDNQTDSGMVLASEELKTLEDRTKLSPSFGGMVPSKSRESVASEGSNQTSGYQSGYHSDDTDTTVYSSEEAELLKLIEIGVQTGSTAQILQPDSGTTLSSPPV

B1: biotin-V21H4 (VHH)
VHH: QVQLVESGGGLVQAGGSLRLSCAASGRAFSSYAMGWFRQAPGKERELVAAISWSDDSTYYANSVKGRFTISRDNAKSAVYLQMNSLKPEDTAVYYCAAHKSLQRPDEYTYWGQGTQVTVSS
notes: residues 1-127: V21 core (122 residues, ending at S122) and the first of the added C-terminal residues G123-C136; C136 is the added terminal cysteine; 136 residues in all; also called V21H4 antibody; biotinylated V21H4
Turning to B1, the values for the EC50 (in experiment [1]; with recombinant VEGFR2/Fc) were 1.6 nM and 1.8 nM, respectively.

B2: VEGFR1/Fc (Fc fusion, UniProt P17948 27-758, looked up)
chain: SKLKDPELSLKGTQHIMQAGQTLHLQCRGEAAHKWSLPEMVSKESERLSITKSACGRNGKQFCSTLTLNTAQANHTGFYSCKYLAVPTSKKKETESAIYIFISDTGRPFVEMYSEIPEIIHMTEGRELVIPCRVTSPNITVTLKKFPLDTLIPDGKRIIWDSRKGFIISNATYKEIGLLTCEATVNGHLYKTNYLTHRQTNTIIDVQISTPRPVKLLRGHTLVLNCTATTPLNTRVQMTWSYPDEKNKRASVRRRIDQSNSHANIFYSVLTIDKMQNKDKGLYTCRVRSGPSFKSVNTSVHIYDKAFITVKHRKQQVLETVAGKRSYRLSMKVKAFPSPEVVWLKDGLPATEKSARYLTRGYSLIIKDVTEEDAGNYTILLSIKQSNVFKNLTATLIVNVKPQIYEKAVSSFPDPALYPLGSRQILTCTAYGIPQPTIKWFWHPCNHNHSEARCDFCSNNEESFILDADSNMGNRIESITQRMAIIEGKNKMASTLVVADSRISGIYICIASNKVGTVGRNISFYITDVPNGFHVNLEKMPTEGEDLKLSCTVNKFLYRDVTWILLRTVNNRTMHYSISKQKMAITKEHSITLNLTIMNVSLQDSGTYACRARNVYTGEEILQKKEITIRDQEAPYLLRNLSDHTVAISSSTTLDCHANGVPEPQITWFKNNHKIQQEPGIILGPGSSTLFIERVTEEDEGVYHCKATNQKGSVESSAYLTVQGTSDKSNLE
notes: vascular endothelial growth factor receptor 1 (VEGFR1), recombinant Fc fusion protein; also called recombinant Fc fusion protein of VEGFR1; source: bought: R&D Systems
B2: the binding result in the experiment with V21H4-DOS47 is “no binding”.
